Measurements taken from the supplement of paper PMC9112550, “Optimization of the antimicrobial peptide Bac7 by deep mutational scanning” (BMC Biology, 2022).

tested on: Escherichia coli TOP10; assay: shrunken log2 fold change of peptide-encoding DNA abundance (4.5 h post-induction vs induction); higher = less antimicrobial activity (less host growth inhibition); details: time post-induction: 4.5 h; library: site-saturation at positions 5, 18, 19, 20
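Further: peptides expressed intracellularly from a pBAD plasmid library in pooled LB shake-flask culture, induced with 0.3% L-arabinose, DNA abundance read by NGS, three biological replicates, DESeq2 with apeglm shrinkage.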

Sequence	shrunken log2 fold change
RRIRMRPPRLPRPRPRPCNLPRP	-0.369
RRIRWRPPRLPRPRPRPSFEPRP	-0.0836
RRIRLRPPRLPRPRPRPLYRPRP	-0.0861
RRIRRRPPRLPRPRPRPIYYPRP	-0.192
RRIRTRPPRLPRPRPRPSFAPRP	-0.126
RRIRDRPPRLPRPRPRPMGYPRP	-0.115
RRIRCRPPRLPRPRPRPGDDPRP	0.745
RRIRNRPPRLPRPRPRPNIPPRP	-0.24
RRIRKRPPRLPRPRPRPSKVPRP	-0.131
RRIRYRPPRLPRPRPRPKHSPRP	-0.875
RRIRARPPRLPRPRPRPSTEPRP	0.396
RRIRQRPPRLPRPRPRPCCGPRP	0.0293
RRIRYRPPRLPRPRPRPGGKPRP	0.0336
RRIRLRPPRLPRPRPRPYCSPRP	-0.00936
RRIRARPPRLPRPRPRPAEDPRP	1.19
RRIRGRPPRLPRPRPRPHWSPRP	-0.132
RRIRQRPPRLPRPRPRPPSLPRP	0.149
RRIRWRPPRLPRPRPRPIVFPRP	-0.125
RRIRMRPPRLPRPRPRPQEFPRP	0.284
RRIRERPPRLPRPRPRPPIEPRP	-0.227
RRIRGRPPRLPRPRPRPQNQPRP	0.0596
RRIRMRPPRLPRPRPRPGSHPRP	0.0978
RRIRKRPPRLPRPRPRPQSQPRP	0.249
RRIRKRPPRLPRPRPRPTRVPRP	0.53
RRIRLRPPRLPRPRPRPIYAPRP	0.111

Sequence	shrunken log2 fold change
RRIRIRPPRLPRPRPRPGCSPRP	-0.391
RRIRNRPPRLPRPRPRPERSPRP	0.129
RRIRLRPPRLPRPRPRPKNHPRP	-0.269
RRIRYRPPRLPRPRPRPRMEPRP	-0.0654
RRIRIRPPRLPRPRPRPQGMPRP	-0.501
RRIRFRPPRLPRPRPRPFNRPRP	0.0118
RRIRQRPPRLPRPRPRPINPPRP	-0.357
RRIRARPPRLPRPRPRPMHWPRP	0.548
RRIRNRPPRLPRPRPRPWPSPRP	0.0756
RRIRWRPPRLPRPRPRPFDFPRP	-0.159
RRIRLRPPRLPRPRPRPMNVPRP	-0.839
RRIRDRPPRLPRPRPRPHGAPRP	0.211
RRIRVRPPRLPRPRPRPVIWPRP	0.286
RRIRLRPPRLPRPRPRPHSLPRP	0.0368
RRIRTRPPRLPRPRPRPDPIPRP	0.03
RRIRMRPPRLPRPRPRPFPGPRP	-0.0808
RRIRCRPPRLPRPRPRPLANPRP	0.452
RRIRLRPPRLPRPRPRPSYPPRP	-0.472
RRIRARPPRLPRPRPRPLTHPRP	0.227
RRIRARPPRLPRPRPRPNGLPRP	-0.0319
RRIRHRPPRLPRPRPRPELLPRP	0.06
RRIRFRPPRLPRPRPRPARKPRP	0.294
RRIRTRPPRLPRPRPRPSSGPRP	0.11
RRIRVRPPRLPRPRPRPMIIPRP	-1.25
RRIRSRPPRLPRPRPRPNTNPRP	-0.0164

Sequence	shrunken log2 fold change
RRIRKRPPRLPRPRPRPDPQPRP	0.729
RRIRYRPPRLPRPRPRPAYVPRP	-0.296
RRIRGRPPRLPRPRPRPLWTPRP	0.472
RRIRTRPPRLPRPRPRPLCHPRP	-0.175
RRIRGRPPRLPRPRPRPTMMPRP	0.541
RRIRKRPPRLPRPRPRPDEKPRP	0.411
RRIRARPPRLPRPRPRPDMIPRP	-0.0395
RRIRQRPPRLPRPRPRPFGEPRP	0.287
RRIRQRPPRLPRPRPRPRNCPRP	5
RRIRWRPPRLPRPRPRPRYFPRP	-0.127
RRIRSRPPRLPRPRPRPEVTPRP	0.501
RRIRDRPPRLPRPRPRPPQEPRP	0.559
RRIRERPPRLPRPRPRPWRQPRP	-0.00951
RRIRARPPRLPRPRPRPASQPRP	0.445
RRIRFRPPRLPRPRPRPLTKPRP	-0.2
RRIRTRPPRLPRPRPRPPGTPRP	0.331
RRIRPRPPRLPRPRPRPAFQPRP	0.156
RRIRVRPPRLPRPRPRPTRDPRP	0.472
RRIRTRPPRLPRPRPRPSCEPRP	-0.252
RRIRTRPPRLPRPRPRPNLPPRP	0.0474
RRIRVRPPRLPRPRPRPQEGPRP	-0.15
RRIRQRPPRLPRPRPRPCCLPRP	-0.0936
RRIRYRPPRLPRPRPRPVTWPRP	-0.207
RRIRYRPPRLPRPRPRPNWNPRP	-1.09
RRIRPRPPRLPRPRPRPWLCPRP	0.106

Sequence	shrunken log2 fold change
RRIRRRPPRLPRPRPRPISSPRP	0.0497
RRIRARPPRLPRPRPRPLHVPRP	0.0439
RRIRHRPPRLPRPRPRPRPWPRP	0.0732
RRIRNRPPRLPRPRPRPKSRPRP	-0.0139
RRIRNRPPRLPRPRPRPMGGPRP	0.0264
RRIRERPPRLPRPRPRPYSRPRP	-0.195
RRIRYRPPRLPRPRPRPPVAPRP	0.0771
RRIRVRPPRLPRPRPRPCFQPRP	-0.313
RRIRFRPPRLPRPRPRPMRSPRP	0.904
RRIRYRPPRLPRPRPRPGKCPRP	-0.264
RRIRIRPPRLPRPRPRPMNYPRP	-0.0706
RRIRDRPPRLPRPRPRPTFDPRP	0.853
RRIRNRPPRLPRPRPRPYLLPRP	-0.27
RRIRKRPPRLPRPRPRPLHMPRP	0.102
RRIRARPPRLPRPRPRPIMSPRP	0.0485
RRIRSRPPRLPRPRPRPQDIPRP	-0.296
RRIRLRPPRLPRPRPRPDFVPRP	-0.108
RRIRWRPPRLPRPRPRPSQFPRP	-0.196
RRIRWRPPRLPRPRPRPNVFPRP	-0.304
RRIRWRPPRLPRPRPRPAFVPRP	0.139
RRIRGRPPRLPRPRPRPVRDPRP	0.401
RRIRTRPPRLPRPRPRPEPAPRP	0.763
RRIRGRPPRLPRPRPRPPLGPRP	0.844
RRIRHRPPRLPRPRPRPTYLPRP	-0.133
RRIRWRPPRLPRPRPRPNWVPRP	0.0816

Sequence	shrunken log2 fold change
RRIRSRPPRLPRPRPRPELEPRP	0.54
RRIRPRPPRLPRPRPRPSLYPRP	-0.326
RRIRPRPPRLPRPRPRPDIMPRP	-0.0454
RRIRRRPPRLPRPRPRPQCQPRP	0.0393
RRIRWRPPRLPRPRPRPASGPRP	0.461
RRIRERPPRLPRPRPRPHWGPRP	0.0212
RRIRQRPPRLPRPRPRPDCYPRP	-0.304
RRIRARPPRLPRPRPRPSEWPRP	0.0632
RRIRQRPPRLPRPRPRPAPFPRP	0.613
RRIRARPPRLPRPRPRPVCVPRP	0.579
RRIRCRPPRLPRPRPRPLSDPRP	0.0896
RRIRYRPPRLPRPRPRPVMWPRP	3.51
RRIRHRPPRLPRPRPRPYGEPRP	-1.23
RRIRQRPPRLPRPRPRPYFNPRP	-0.82
RRIRVRPPRLPRPRPRPCRWPRP	0.182
RRIRYRPPRLPRPRPRPVLCPRP	-0.272
RRIRDRPPRLPRPRPRPIILPRP	0.0057
RRIRIRPPRLPRPRPRPGSIPRP	-0.471
RRIRNRPPRLPRPRPRPREPPRP	0.697
RRIRMRPPRLPRPRPRPFNNPRP	-0.296
RRIRQRPPRLPRPRPRPSNKPRP	-0.513
RRIRSRPPRLPRPRPRPFDCPRP	-0.277
RRIRVRPPRLPRPRPRPSQCPRP	-0.187
RRIRLRPPRLPRPRPRPQPPPRP	0.517
RRIRYRPPRLPRPRPRPAWDPRP	-0.092

Sequence	shrunken log2 fold change
RRIRQRPPRLPRPRPRPKCIPRP	-0.0337
RRIRPRPPRLPRPRPRPWNLPRP	-0.365
RRIRVRPPRLPRPRPRPNCQPRP	-0.1
RRIRIRPPRLPRPRPRPLPVPRP	0.094
RRIRERPPRLPRPRPRPCAGPRP	-0.0261
RRIRGRPPRLPRPRPRPLKCPRP	0.303
RRIRFRPPRLPRPRPRPTALPRP	0.0145
RRIRARPPRLPRPRPRPETTPRP	1.61
RRIRNRPPRLPRPRPRPFLYPRP	-0.468
RRIRLRPPRLPRPRPRPGYMPRP	-0.459
RRIRFRPPRLPRPRPRPFMVPRP	-0.654
RRIRWRPPRLPRPRPRPEPLPRP	0.417
RRIRGRPPRLPRPRPRPELAPRP	2
RRIRNRPPRLPRPRPRPQVDPRP	-0.706
RRIRPRPPRLPRPRPRPPSIPRP	-0.0949
RRIRDRPPRLPRPRPRPYISPRP	-0.176
RRIRCRPPRLPRPRPRPAYYPRP	-0.476
RRIRSRPPRLPRPRPRPTAQPRP	0.405
RRIRRRPPRLPRPRPRPQTWPRP	0.345
RRIRWRPPRLPRPRPRPGDCPRP	0.00839
RRIRDRPPRLPRPRPRPSEQPRP	0.0598
RRIRHRPPRLPRPRPRPKTSPRP	-0.0692
RRIRRRPPRLPRPRPRPYDCPRP	-0.113
RRIRKRPPRLPRPRPRPFTFPRP	-0.325
RRIRTRPPRLPRPRPRPKPHPRP	0.0899
